Measurements: the Immune Epitope Database (IEDB)

Legend:
HLA-B*44:02 [1] = test: IEDB peptide-MHC binding, purified MHC/competitive/radioactivity; filed as Kd, often an IC50 or EC50 that approximates it; ≥ and ≤ were set here for values at or beyond the usual limits of such assays
HLA-B*44:03 = test: as above
HLA-A*02:01 [2] = test: as above
HLA-B*18:01 = test: IEDB peptide-MHC binding, purified MHC/direct/fluorescence; filed as Kd, often an IC50 or EC50 that approximates it; ≥ and ≤ were set here for values at or beyond the usual limits of such assays
HLA-B*58:01 = test: as above
HLA-B*40:01 [3] = test: as above
HLA-A*01:01 = test: as above
HLA-B*57:01 = test: as above
HLA-A*31:01 = test: as above
HLA-B*44:02 [4] = test: as above
HLA-A*02:01 [5] = test: as above; conditions: source organism: Mammarenavirus juninense
HLA-B*15:01 [6] = test: as above; conditions: source organism: Mammarenavirus juninense
HLA-B*07:02 [7] = test: as above; conditions: source organism: Mammarenavirus juninense
HLA-B*08:01 = test: as above
HLA-A*03:01 = test: as above
HLA-B*27:05 = test: as above
HLA-B*46:01 = test: as above
HLA-B*48:01 = test: as above
HLA-A*26:01 = test: IEDB peptide-MHC binding, purified MHC/competitive/fluorescence; filed as Kd, often an IC50 or EC50 that approximates it; ≥ and ≤ were set here for values at or beyond the usual limits of such assays
HLA-B*40:01 [8] = test: IEDB peptide-MHC binding, purified MHC/competitive/radioactivity; filed as Kd, often an IC50 or EC50 that approximates it; ≥ and ≤ were set here for values at or beyond the usual limits of such assays
HLA-A*02:01 [9] = test: IEDB peptide-MHC binding, purified MHC/competitive/fluorescence; ≥ and ≤ were set here for values at or beyond the usual limits of such assays
HLA-A*24:02 [10] = test: as above
HLA-A*11:01 = test: IEDB peptide-MHC binding, purified MHC/direct/fluorescence; filed as Kd, often an IC50 or EC50 that approximates it; ≥ and ≤ were set here for values at or beyond the usual limits of such assays; conditions: source organism: Mycobacterium tuberculosis variant bovis BCG str. Pasteur 1173P2
HLA-A*69:01 = test: as above; conditions: source organism: Mycobacterium tuberculosis variant bovis BCG str. Pasteur 1173P2
HLA-B*15:17 = test: as above
HLA-A*02:02 = test: IEDB peptide-MHC binding, purified MHC/competitive/radioactivity; filed as Kd, often an IC50 or EC50 that approximates it; ≥ and ≤ were set here for values at or beyond the usual limits of such assays; conditions: source organism: Homo sapiens
HLA-B*51:01 [11] = test: IEDB peptide-MHC binding, purified MHC/competitive/fluorescence; filed as Kd, often an IC50 or EC50 that approximates it; ≥ and ≤ were set here for values at or beyond the usual limits of such assays; conditions: source organism: Burkholderia ambifaria AMMD
HLA-B*53:01 = test: IEDB peptide-MHC binding, purified MHC/competitive/radioactivity; filed as Kd, often an IC50 or EC50 that approximates it; ≥ and ≤ were set here for values at or beyond the usual limits of such assays; conditions: source organism: Dengue virus 1 Brazil/97-11/1997
HLA-B*35:01 = test: as above; conditions: source organism: Dengue virus 1 Brazil/97-11/1997
HLA-A*23:01 = test: as above; conditions: source organism: Dengue virus 1 Brazil/97-11/1997
HLA-B*07:02 [12] = test: as above
HLA-A*24:02 [13] = test: as above; conditions: source organism: Dengue virus 1 Brazil/97-11/1997
HLA-B*51:01 [14] = test: as above; conditions: source organism: Dengue virus 2 16681-PDK53
HLA-B*15:01 [15] = test: IEDB peptide-MHC binding, purified MHC/competitive/fluorescence; filed as Kd, often an IC50 or EC50 that approximates it; ≥ and ≤ were set here for values at or beyond the usual limits of such assays; conditions: source organism: Yersinia pestis Nepal516
HLA-B*39:01 = test: as above
[16] = source organism: Dengue virus 3 Martinique/1243/1999
[17] = source organism: Dengue virus 1 Singapore/S275/1990
[18] = source organism: Triticum aestivum
[19] = source organism: Mammarenavirus juninense
[20] = source organism: Dengue virus 4 Dominica/814669/1981
[21] = source organism: Zaire ebolavirus
[22] = source organism: Dengue virus 1 Brazil/97-11/1997
[23] = source organism: Sudan ebolavirus
[24] = source organism: Dengue virus 2 Jamaica/1409/1983
[25] = source organism: Mycobacterium tuberculosis variant bovis BCG str. Pasteur 1173P2
[26] = source organism: Cryptosporidium parvum
[27] = source organism: Listeria monocytogenes serotype 4b str. H7858
[28] = source organism: Camelpox virus M-96
[29] = source organism: Dengue virus 4 Philippines/H241/1956
[30] = source organism: Vaccinia virus Copenhagen
[31] = source organism: Vaccinia virus WR
[32] = source organism: Vaccinia virus
[33] = source organism: West Nile virus

ADMGCVINW
Kd (HLA-B*44:02 [1]; [16]): 0.0928 µM
Kd (HLA-B*44:03; [16]): 0.11 µM

AEHSGASHNI
Kd (HLA-B*44:02 [1]; [17]): 0.0786 µM
Kd (HLA-B*44:03; [17]): 0.502 µM

AIHNVVHAI
Kd (HLA-A*02:01 [2]; [18]): 0.166 µM

DLKLVDVKL
Kd (HLA-B*18:01; [19]): ≥ 20 µM
Kd (HLA-B*58:01; [19]): ≥ 20 µM
Kd (HLA-B*40:01 [3]; [19]): ≥ 20 µM
Kd (HLA-A*01:01; [19]): ≥ 20 µM
Kd (HLA-B*57:01; [19]): ≥ 20 µM
Kd (HLA-A*31:01; [19]): ≥ 20 µM
Kd (HLA-B*44:02 [4]; [19]): ≥ 20 µM
Kd (HLA-A*02:01 [5]): ≥ 20 µM
Kd (HLA-B*15:01 [6]): ≥ 20 µM
Kd (HLA-B*07:02 [7]): ≥ 20 µM
Kd (HLA-B*08:01; [19]): ≥ 20 µM
Kd (HLA-A*03:01; [19]): ≥ 20 µM
Kd (HLA-B*27:05; [19]): ≥ 20 µM
Kd (HLA-B*46:01; [19]): ≥ 20 µM
Kd (HLA-B*48:01; [19]): ≥ 20 µM

DTVHDRTPY
Kd (HLA-A*26:01; source organism: Influenza A virus (A/Waikato/7/2000(H3N2))): 0.0414 µM

EEIDKKDGDL
Kd (HLA-B*40:01 [8]; [20]): 1.89 µM
Kd (HLA-B*44:03; [20]): 0.421 µM

ELCCQHLWQI
Kd (HLA-A*02:01 [2]; [18]): 5.55 µM

ELSGYCSNI
Kd (HLA-A*02:01 [2]; source organism: Lassa virus GA391): 12.5 µM

EQLGVPLHL
Kd (HLA-B*48:01; source organism: Vibrio alginolyticus 12G01): 0.488 µM

EYLFEVDNL
IC50 (HLA-A*02:01 [9]; [21]): 43.7 µM
IC50 (HLA-A*24:02 [10]; [21]): 0.402 µM

FEATARGARR
Kd (HLA-B*40:01 [8]; [22]): 1.9 µM

FFLWVIILF
IC50 (HLA-A*02:01 [9]; [21]): 7.45 µM
IC50 (HLA-A*24:02 [10]; [21]): 53 µM

FFVWVIILF
IC50 (HLA-A*24:02 [10]; [23]): 1.51 µM

GEFGKAKGS
Kd (HLA-B*44:03; [24]): 4.16 µM

GIAWIPYFG
IC50 (HLA-A*02:01 [9]; [23]): 2.72 µM
IC50 (HLA-A*24:02 [10]; [23]): ≥ 76.2 µM

GIFEDRAPV
Kd (HLA-A*02:01 [2]; source organism: Human alphaherpesvirus 1 strain 17): 0.5 µM

IEQMANGIAL
Kd (HLA-B*40:01 [8]; [16]): 0.00257 µM

IEVKTCIWPK
Kd (HLA-B*40:01 [8]; [22]): 2.91 µM

IIRVTSELL
Kd (HLA-B*18:01; [25]): ≥ 20 µM
Kd (HLA-B*58:01; [25]): ≥ 20 µM
Kd (HLA-B*40:01 [3]; [25]): ≥ 20 µM
Kd (HLA-A*01:01; [25]): ≥ 20 µM
Kd (HLA-B*57:01; [25]): ≥ 20 µM
Kd (HLA-A*31:01; [25]): ≥ 20 µM
Kd (HLA-B*44:02 [4]; [25]): ≥ 20 µM
Kd (HLA-B*08:01; [25]): 13 µM
Kd (HLA-A*03:01; [25]): ≥ 20 µM
Kd (HLA-B*27:05; [25]): ≥ 20 µM
Kd (HLA-B*46:01; [25]): ≥ 20 µM
Kd (HLA-A*11:01): ≥ 20 µM
Kd (HLA-A*69:01): ≥ 20 µM
Kd (HLA-B*48:01; [25]): ≥ 20 µM

KACPPGFVF
Kd (HLA-B*58:01; [26]): 0.0177 µM
Kd (HLA-B*57:01; [26]): 2.48 µM
Kd (HLA-B*15:17; [26]): 0.143 µM

KELKCGSGIF
Kd (HLA-B*44:02 [1]; [24]): 0.0336 µM

KLEEEQIIL
Kd (HLA-A*02:01 [2]; source organism: Homo sapiens): 0.0721 µM
Kd (HLA-A*02:02): 0.0735 µM

KSAYPFDEL
Kd (HLA-B*58:01; [27]): 0.046 µM
Kd (HLA-B*57:01; [27]): ≥ 20 µM
Kd (HLA-B*15:17; source organism: Listeria monocytogenes): 0.134 µM

KSVTKSSSW
Kd (HLA-B*58:01; [28]): 0.0162 µM
Kd (HLA-B*57:01; [28]): 0.108 µM
Kd (HLA-B*15:17; [28]): ≤ 0.001 µM

LDKITDFHE
IC50 (HLA-A*24:02 [10]; source organism: Variola virus): 24.2 µM

LEENMEVEIW
Kd (HLA-B*44:02 [1]; [29]): 0.225 µM
Kd (HLA-B*44:03; [29]): 0.257 µM

LHSLSVETI
IC50 (HLA-A*02:01 [9]; [30]): ≥ 195 µM
IC50 (HLA-A*24:02 [10]; [30]): 13 µM

LLMWITQCFL
Kd (HLA-A*02:01 [2]; source organism: Homo sapiens): 0.043 µM

LPWSSPQLW
Kd (HLA-B*51:01 [11]): 0.0906 µM

LTLTNTSII
Kd (HLA-A*02:01 [2]; source organism: Lassa virus Josiah): 6.25 µM

MEVTAKWLWG
Kd (HLA-B*44:03; [22]): 0.128 µM

NGTLEFTPI
IC50 (HLA-A*02:01 [9]; [31]): 11.1 µM
IC50 (HLA-A*24:02 [10]; [31]): 23.1 µM

NLEEICQLI
IC50 (HLA-A*02:01 [9]; [21]): 65.1 µM
IC50 (HLA-A*24:02 [10]; [21]): ≥ 90.8 µM

PEVANLDII
Kd (HLA-B*40:01 [8]; [22]): 8.59 µM

QYVDDANLE
IC50 (HLA-A*24:02 [10]; [32]): ≥ 1330 µM

RAAGLQDCTM
Kd (HLA-A*02:01 [2]; source organism: Hepatitis C virus (isolate 1)): ≥ 50 µM

REWCFTGERN
Kd (HLA-B*40:01 [8]; [29]): 0.502 µM

RKHHTKIDS
IC50 (HLA-A*24:02 [10]; source organism: Variola virus): 27.2 µM

RLGLSRPLL
Kd (HLA-A*02:01 [2]; source organism: Hepatitis B virus subtype ayw): ≥ 5 µM

RNTTPMMIQ
IC50 (HLA-A*24:02 [10]; [32]): ≥ 70.4 µM

RPMFAVGLLF
Kd (HLA-B*53:01): 0.0935 µM
Kd (HLA-B*35:01): 0.919 µM
Kd (HLA-A*23:01): 0.0339 µM
Kd (HLA-B*07:02 [12]; [22]): 0.0105 µM
Kd (HLA-A*24:02 [13]): 0.416 µM

RQTQSRPIQ
IC50 (HLA-A*24:02 [10]; [21]): ≥ 125 µM

RVLEMVEDW
Kd (HLA-B*57:01; [33]): 0.0879 µM
Kd (HLA-B*15:17; [33]): 0.0432 µM

SGASTSQETW
Kd (HLA-B*44:02 [1]; [22]): 10.9 µM

SISGVLWQV
Kd (HLA-A*02:01 [2]; source organism: Hepatitis C virus subtype 2b): 0.036 µM

SPIIDKKGKV
Kd (HLA-B*07:02 [12]; source organism: Dengue virus 2 16681-PDK53): 0.582 µM
Kd (HLA-B*51:01 [14]): ≥ 69.6 µM

TEYKRVMTF
Kd (HLA-B*15:01 [15]): 0.767 µM

THEILWPSF
Kd (HLA-B*39:01; source organism: Shewanella putrefaciens CN-32): 2.48 µM

VEITALILGA
Kd (HLA-B*40:01 [8]; [29]): 0.842 µM

WENVPYLGK
Kd (HLA-B*44:02 [1]; [16]): 8.42 µM

WRTIMAVLF
Kd (HLA-B*48:01; source organism: dengue virus type 4): ≥ 20 µM

YNAELLVAL
Kd (HLA-B*39:01; source organism: Influenza A virus (A/gray teal/Australia/2/1979(H4N4))): 0.0009 µM

YTYATRGIY
Kd (HLA-A*26:01; source organism: Yersinia pestis Nepal516): 0.0062 µM
